# Measured values taken from patent publication US8329178B2.
# How the values were obtained:
# Test in all cases: FACS, 293T cells expressing CXCR4 variants
# ΔN31-CXCR4 (human) = ΔN31-CXCR4 (human) (UniProt P61073)
# [1] = molecular target: CXCR2/CXCR4 chimera 2444b (human) (UniProt P61073)
# [2] = molecular target: CXCR2/CXCR4 chimera 2442 (human) (UniProt P61073)
# ΔN25-CXCR4 (human) = ΔN25-CXCR4 (human) (UniProt P61073)
# Chain of ΔN25-CXCR4 (human) (P61073 26-352, stated change not applied): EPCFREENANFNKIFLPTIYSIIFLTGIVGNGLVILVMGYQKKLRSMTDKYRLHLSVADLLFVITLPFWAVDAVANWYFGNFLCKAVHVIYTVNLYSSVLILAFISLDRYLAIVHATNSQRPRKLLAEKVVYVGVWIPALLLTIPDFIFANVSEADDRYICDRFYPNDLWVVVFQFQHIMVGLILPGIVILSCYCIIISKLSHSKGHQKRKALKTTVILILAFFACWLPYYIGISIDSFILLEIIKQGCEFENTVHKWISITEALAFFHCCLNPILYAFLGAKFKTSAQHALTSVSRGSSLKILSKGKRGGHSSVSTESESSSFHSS
# Chain of ΔN31-CXCR4 (human) (P61073 32-352, stated change not applied): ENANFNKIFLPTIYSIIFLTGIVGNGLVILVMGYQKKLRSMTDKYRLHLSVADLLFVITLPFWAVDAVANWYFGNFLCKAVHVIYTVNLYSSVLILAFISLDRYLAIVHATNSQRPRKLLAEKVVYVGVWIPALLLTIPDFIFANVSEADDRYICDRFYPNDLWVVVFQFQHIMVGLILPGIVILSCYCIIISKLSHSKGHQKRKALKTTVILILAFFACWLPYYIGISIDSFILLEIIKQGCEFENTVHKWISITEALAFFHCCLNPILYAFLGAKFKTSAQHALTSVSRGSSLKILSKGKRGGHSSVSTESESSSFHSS
binder,measurement,setting,value
"33-IgG1 (antibody, V domains shown) VH: QVTLKESGGGVVQPGRSLRLSCAASGFTFTNYGLHWVRQAPGKGLEWVAVISHDGTKKYYADSVKGRFTISRDSSENTLYLQMNSLRPEDSALYYCARDGGYCSGGRCYSYGMDVWGQGTTVTVSS VL: QSVLTQPPSASGTPGQRVTISCSGSRSNIGSNTVNWYQQLPGTAPKLLIYTNNQRPSGVPDRFSGSKSGTSASLAITGLQAEDEADYYCLSFDSSLTSYVFGTGTKVTVLG",binding to cells expressing the variant (+%),ΔN31-CXCR4 (human),9%
same,binding to cells expressing the variant (+%),[1],1%
same,binding to cells expressing the variant (+%),[2],1.5%
same,binding to cells expressing the variant (+%),ΔN25-CXCR4 (human),13%
